Results reported in paper PMC11655906, “Required minimal protein domain of flower for synaptobrevin2 endocytosis in cytotoxic T cells” (Cellular and Molecular Life Sciences: CMLS, 2024).
“And” between values parts separate entries of the source, which are not always exact repeats. Identical values can stand only once.

Target: the molecule itself
Assay: native gel or EMSA; native PAGE (4-16% Bis-Tris, G-250 additive) of lysates of transfected Fwe KO mouse CTLs (modified RIPA: 50 mM Tris pH 7.5, 50 mM NaCl, 1% Triton-X-100, 1 mM EDTA), western blot with anti-DsRed recognising mTFP; oligomeric state read from band size

| Protein | stoichiometry N |
| --- | --- |
| mouse Flower isoform 2, full-length form, with C-terminal mTFP (mFwe2-mTFP) (natural protein, UniProt Q8BG21-1 1-171, looked up, mouse Flower (Fwe); also called Mouse Flower 2; source: Fwe KO mouse CTLs, transfected with pMAX plasmid, in lysate) MSGSGAAGAAAGPAPPAQEEGMTWWYRWLCRLAGVLGAVSCAISGLFNCVTIHPLNIAAGVWMIMNAFILLLCEAPFCCQFVEFANTVAEKVDRLRSWQKAVFYCGMAIVPIVMSLTLTTLLGNAIAFATGVLYGLSALGKKGDAISYARIQQQRQQADEEKLAETFEGEL | 4 and 2 |
| mouse Flower isoform 3 with C-terminal mTFP (mFwe3-mTFP) (natural protein, UniProt Q8BG21-2 1-128, looked up, source: Fwe KO mouse CTLs, transfected with pMAX plasmid, in lysate) MSGSGAAGAAAGPAPPAQEEGMTWWYRWLCRLAGVLGAVSCAISGLFNCVTIHPLNIAAGVWMIMNAFILLLCEAPFCCQFVEFANTVAEKVDRLRSWQKAVFYCGHGEALRGAWPDVRLPNRNTISL | 2 and 4 and 6 |
| human Flower isoform 4 with C-terminal mTFP (hFwe4-mTFP) (natural protein, UniProt Q9UGQ2-1 1-172, looked up, human Flower (CACFD1) isoform hFwe4, contains exon 3 and both the YRWL and YARI motifs; 93% identical to mFwe2; also called human isoform Fwe4; source: Fwe KO mouse CTLs, transfected with pMAX plasmid, in lysate) MSSSGGAPGASASSAPPAQEEGMTWWYRWLCRLSGVLGAVSCAISGLFNCITIHPLNIAAGVWMIMNAFILLLCEAPFCCQFIEFANTVAEKVDRLRSWQKAVFYCGMAVVPIVISLTLTTLLGNAIAFATGVLYGLSALGKKGDAISYARIQQQRQQADEEKLAETLEGEL | 2 and 4 |
| Drosophila Flower isoform Ubi with C-terminal mTFP (dUbi-mTFP) (natural protein, UniProt Q95T12-1 1-194, looked up, Drosophila Flower (Fwe), ubiquitous splice isoform dUbi; the three Drosophila isoforms are identical in aa 1-146 and differ in the C-terminus; also called dFwe-Ubi-mTFP; Drosophila Ubi isoform; source: Fwe KO mouse CTLs, transfected with pMAX plasmid, in lysate) MSFAEKITGLLARPNQQDPIGPEQPWYLKYGSRLLGIVAAFFAILFGLWNVFSIITLSVSCLVAGILQMVAGFVVMLLEAPCCFVCFGQVNEIAEKVESKPLYFRAGLYIAMAIPPIILCFGLASLFGSGLIFGTGVVYGMMALGKKASAEDMRAAAQQTFGGNTPAQTNDRAGIVNNAQPFSFTGAVGTDSNV | 2 and 4 |
| mouse Flower isoform 1 with C-terminal mTFP (mFwe1-mTFP) (natural protein, UniProt Q8BG21-3 1-106, looked up, Whole isoform cDNA synthesised (BioCAT) and subcloned into pMAX-mTFP; also called Mouse Fwe1; source: Fwe KO mouse CTLs, transfected with pMAX plasmid, in lysate) MSGSGAAGAAAGPAPPAQEEGMTWWYRWLCRLAGVLGAVSCAISGLFNCVTIHPLNIAAGVWMIMNAFILLLCEAPFCCQFVEFANTVAEKVDRLRSWQKAVFYCG | 4 and 6 and 2 |
